# The supplement of paper PMC10567573
# ± gives the standard deviation.
# Assay: protein stability index of a GFP-peptide fusion (GPS, HEK-293T) (PSI 1-6); higher = more stable
# [1] = treatment: DMSO, c terminus: a fixed tail appended
# [2] = treatment: MLN4924 1 uM, 8 h, c terminus: a fixed tail appended
# 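Further: 24-mer peptide tiles fused after GFP, lentivirally expressed, FACS-sorted into six equal bins by GFP/DsRed ratio, decoded by Illumina sequencing, PSI is the read-weighted mean bin number.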
Sequence,protein stability index [1],protein stability index [2],"protein stability index (treatment: DMSO, c terminus: native)","protein stability index (treatment: MLN4924 1 uM, 8 h, c terminus: native)"
SMNRVKNISDADVHNAMDNYECNL [FEM1B],4.18 ± 0.29,4.3 ± 0.29,–,–
SNLHRHQRTHTGEKPYKCPECGEI [ZNF263],4.22 ± 0.41,4.53 ± 0.22,–,–
SNSLSSAEPLKEDKPVTGPRNKTE [ATF6],5.67 ± 0.1,5.59 ± 0.3,–,–
SPKRQLQFYRNLGKSGLRVSCLGL [KCNAB2],2.3 ± 0.41,2.18 ± 0.12,–,–
SPPAAPCPPPPGPAAAPEGDWARL [ZBED3],5.08 ± 0.16,5.07 ± 0.063,–,–
SPPVPGPSAALTTMQLFSKQNPSR [FBXO28],4.22 ± 0.42,4.33 ± 0.23,–,–
SPSESSETVLALVNCISPLKYFSD [DENND6A],2.78 ± 0.3,2.8 ± 0.35,–,–
SQENSINPIQKEEDEGVDLSEGSS [SPANXN3],5.5 ± 0.2,5.64 ± 0.084,–,–
SQNSFLVQEVMEEEWNALQSVENC [RPAIN],4.53 ± 0.29,4.52 ± 0.32,–,–
SQQLQLIDEQDSYIQSRADTMQNI [STX5],4.59 ± 0.21,4.74 ± 0.26,–,–
SRDSAAITHSTYSLPASSYSQDPV [NOL4L],4.54 ± 0.12,4.62 ± 0.15,–,–
SRFVETLVVADDKMAAFHGAGLKR [ADAMTS4],3.46 ± 0.089,4.26 ± 0.11,–,–
SRLLFFLLGFLRIRVRGQRASRLQ [LPCAT4],2.35 ± 0.09,2.58 ± 0.31,–,–
SRLQLLGATCMFVASKMKETIPLT [CCND1],2.69 ± 0.44,2.69 ± 0.66,–,–
SRWSEASRAILQRVQAAAFGPGQT [ALKBH7],3.01 ± 0.38,3.19 ± 0.39,–,–
SSHEVKALGAMWKLHKSQLSQALN [TRIM9],2.7 ± 0.41,2.58 ± 0.27,–,–
SSQESGEEAGSQENHPQESKGQPR [CHGB],5.7 ± 0.16,5.73 ± 0.097,–,–
SSREVFTSSSSSSSRQTRPILKEQ [KRT16],4.67 ± 0.11,4.7 ± 0.3,–,–
STLKKALPTLSHIQEAQSAWKDDF [YJU2B],3.53 ± 0.36,3.75 ± 0.09,–,–
STMLGVFREDPKTREEFLTLIRS [GCH1],–,–,2.38 ± 0.64,2.84 ± 0.34
STNRRRLSELLRYHTSQSGDEMTS [HSP90AB1],3.85 ± 0.15,4.11 ± 0.12,–,–
STPQGKGEVVKIPSRVHGSLEPFR [PWWP2B],3.86 ± 0.16,4.03 ± 0.28,–,–
SVAFAVAWFLPMPQKSLFFHHIPS [SLC19A2],3.65 ± 0.2,3.31 ± 0.23,–,–

Sequence,protein stability index [1],protein stability index [2],"protein stability index (treatment: DMSO, c terminus: native)","protein stability index (treatment: MLN4924 1 uM, 8 h, c terminus: native)"
SVLVILISIVIFCLETLPEFRDDR [KCNA4],2.99 ± 0.29,2.96 ± 0.5,–,–
SVPASDPRSCSSGPAGPYLLSKKG [PLEKHN1],4.65 ± 0.15,4.69 ± 0.089,–,–
SVSLNKTARPFGAPPPADSAPQQN [PDLIM7],4.42 ± 0.11,4.46 ± 0.13,–,–
SVTEYRLDGHTISDLSRSSRGELI [MYBL2],3.67 ± 0.41,3.67 ± 0.38,–,–
SWLESCIVGWRCRVGQWVRMENVT [GMPPB],2.79 ± 0.63,2.69 ± 0.76,–,–
SWNNNDRSLNVFVKEDDKLIFHRH [SPSB1],3.17 ± 0.13,3.29 ± 0.21,–,–
SYEKAVKTRVDLKELGQSQKEQGL [PDZK1],4.75 ± 0.15,4.84 ± 0.12,–,–
SYYIIQHKPKNSEELYKEIDGVAT [PTPRD],2.98 ± 0.4,3.18 ± 0.66,–,–
TAFNFFKMAVSRHLTRGRKMAHVI [BRF1],2.66 ± 0.61,2.33 ± 0.36,–,–
TALLSSGFSLEDPQTHSNRIYRMI [HSP90AB1],2.6 ± 0.36,2.56 ± 0.26,–,–
TANCEACTLGICGQGLKSYMTKPS [RTP4],2.89 ± 0.025,3.01 ± 0.26,–,–
TAQVQKDARIGEAEAKRDAGIREA [FLOT1],5.34 ± 0.16,5.31 ± 0.19,–,–
TARFQRNHRLISEILSESVVPDVR [SMARCE1],–,3.23 ± 0.11,–,–
TASSISSSGGSSGSSSDNRTYRYS [DYRK1B],4.62 ± 0.051,4.67 ± 0.15,–,–
TATMKDLEAEVKDTTRVENLIKSE [R3HDM1],5.36 ± 0.17,5.46 ± 0.23,–,–
TAVAQGGWRSLWLGWGPTALRDVP [SLC25A39],2.45 ± 0.14,1.89 ± 0.17,–,–
TCPSSSTASSISSSGGSSGSSSDN [DYRK1B],5.35 ± 0.16,5.48 ± 0.21,–,–
TCRPPSSSESSSDSDNSGGGGGGG [ANKRD17],5.44 ± 0.24,5.43 ± 0.26,–,–
TDRRVLLMFLDICSELNKLCQHFE [SPACA9],2.44 ± 0.56,2.38 ± 0.42,–,–
TEIAEQEGNQKGEQATSLAILRVI [KCNA1],3.75 ± 0.41,3.56 ± 0.2,–,–
TEKQNFLLFDMTTHPVTNTTEKQR [GOLPH3L],4.31 ± 0.18,4.4 ± 0.32,–,–
TETREEDVTDEHGEREPFAETDEH [FAM9B],5.69 ± 0.061,5.63 ± 0.26,–,–
